Measured values taken from patent publication US20190002888A1 (INSTITUT NATIONAL DE LA SANTE ET DE LA RECHERCHE MEDICALE …, published 2019).

Legend:
[1] = target: FLT3 receptor in adult mouse DRG sensory neurons (mouse) (UniProt Q00342); test: cell-based or functional assay
[2] = target: T1, SNAP tagged mouse FLT3, full-length, expressed in HEK293T cells (mouse, UniProt Q00342 28-1000, SNAP tag covalently labelled with SNAP-Lumi4-Tb); test: TR-FRET displacement of 0.5 nM Red-FL on HEK293T cells expressing SNAP tagged full-length mFLT3
T1 construct: whole, on cells; Transiently transfected HEK293T cells; also called full-length mFLT3; mFLT3; not shown: SNAP tag (plasmid from Cisbio Bioassays)
T1 sequence (looked up): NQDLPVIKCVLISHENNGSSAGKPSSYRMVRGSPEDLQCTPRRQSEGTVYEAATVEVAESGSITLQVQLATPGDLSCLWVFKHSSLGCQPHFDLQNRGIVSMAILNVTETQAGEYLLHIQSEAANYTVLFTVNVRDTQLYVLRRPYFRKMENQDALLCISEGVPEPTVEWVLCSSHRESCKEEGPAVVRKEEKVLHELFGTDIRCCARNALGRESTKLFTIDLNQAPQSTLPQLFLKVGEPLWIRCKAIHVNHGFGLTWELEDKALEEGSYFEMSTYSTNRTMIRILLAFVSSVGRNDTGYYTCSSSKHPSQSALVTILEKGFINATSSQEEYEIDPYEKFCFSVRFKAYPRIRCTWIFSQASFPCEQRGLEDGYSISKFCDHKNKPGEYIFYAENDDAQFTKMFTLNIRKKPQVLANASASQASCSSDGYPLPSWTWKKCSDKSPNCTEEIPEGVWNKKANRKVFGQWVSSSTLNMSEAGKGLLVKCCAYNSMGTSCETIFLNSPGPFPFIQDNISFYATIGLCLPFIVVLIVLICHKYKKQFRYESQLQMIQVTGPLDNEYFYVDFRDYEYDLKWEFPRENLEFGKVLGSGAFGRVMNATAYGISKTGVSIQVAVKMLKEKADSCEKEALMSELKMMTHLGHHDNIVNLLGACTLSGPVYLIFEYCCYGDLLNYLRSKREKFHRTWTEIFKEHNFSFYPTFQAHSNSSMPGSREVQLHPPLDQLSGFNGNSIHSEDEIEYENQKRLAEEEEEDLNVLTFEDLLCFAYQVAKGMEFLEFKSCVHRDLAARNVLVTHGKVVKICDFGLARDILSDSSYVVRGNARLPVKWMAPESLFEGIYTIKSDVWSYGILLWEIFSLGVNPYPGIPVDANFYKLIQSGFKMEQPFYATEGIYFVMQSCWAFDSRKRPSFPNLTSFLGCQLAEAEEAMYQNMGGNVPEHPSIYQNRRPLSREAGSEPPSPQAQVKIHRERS
Procedure: (§1) TR-FRET binding assays. TR-FRET binding assays were performed 24 h after transfection on fresh cells. When using frozen cells, binding assays were carried out immediately after cells thawing. When the assay was carried out on adherent cells in 96-well plates, the cell density was 50,000 cells per well, while a density of 10,000 cells per well was used to carry out binding assays in suspension in 384-well small volume plates.
(§2) Cells were incubated with 0.5 nM Red-FL in the presence of increasing concentrations of the antibody. In the plates containing labelled cells, 50 μl of Tag-lite® labelling medium, 25 μl of compounds to be tested were added and incubated for 1 h at room temperature prior to the addition of 25 μl of Red-FL. Plates were then incubated at room temperature for 4 h or overnight before signal detection.
(§3) Signal detection. Signal was detected using an advanced fluorescence microplate reader (RUBYstar, BMG Labtech) equipped with a HTRF optic module allowing a donor excitation at 337 nm and a signal collection both at 665 nm and 620 nm. A frequency of 20 flashes/well is selected for the laser excitation. […] Results were expressed as percentage of signal measured in the presence of Red-FL alone, corrected for non-specific binding measured in the presence of […].

[3] = target: T2, SNAP tagged human FLT3, full-length, expressed in HEK293T cells (human, UniProt P36888 27-993, SNAP tag covalently labelled with SNAP-Lumi4-Tb); test: TR-FRET displacement of 0.5 nM Red-FL on HEK293T cells expressing SNAP tagged full-length hFLT3
T2 construct: whole, on cells; Transiently transfected HEK293T cells; also called full-length hFLT3; hFLT3; not shown: SNAP tag (plasmid from Cisbio Bioassays)
T2 sequence (looked up): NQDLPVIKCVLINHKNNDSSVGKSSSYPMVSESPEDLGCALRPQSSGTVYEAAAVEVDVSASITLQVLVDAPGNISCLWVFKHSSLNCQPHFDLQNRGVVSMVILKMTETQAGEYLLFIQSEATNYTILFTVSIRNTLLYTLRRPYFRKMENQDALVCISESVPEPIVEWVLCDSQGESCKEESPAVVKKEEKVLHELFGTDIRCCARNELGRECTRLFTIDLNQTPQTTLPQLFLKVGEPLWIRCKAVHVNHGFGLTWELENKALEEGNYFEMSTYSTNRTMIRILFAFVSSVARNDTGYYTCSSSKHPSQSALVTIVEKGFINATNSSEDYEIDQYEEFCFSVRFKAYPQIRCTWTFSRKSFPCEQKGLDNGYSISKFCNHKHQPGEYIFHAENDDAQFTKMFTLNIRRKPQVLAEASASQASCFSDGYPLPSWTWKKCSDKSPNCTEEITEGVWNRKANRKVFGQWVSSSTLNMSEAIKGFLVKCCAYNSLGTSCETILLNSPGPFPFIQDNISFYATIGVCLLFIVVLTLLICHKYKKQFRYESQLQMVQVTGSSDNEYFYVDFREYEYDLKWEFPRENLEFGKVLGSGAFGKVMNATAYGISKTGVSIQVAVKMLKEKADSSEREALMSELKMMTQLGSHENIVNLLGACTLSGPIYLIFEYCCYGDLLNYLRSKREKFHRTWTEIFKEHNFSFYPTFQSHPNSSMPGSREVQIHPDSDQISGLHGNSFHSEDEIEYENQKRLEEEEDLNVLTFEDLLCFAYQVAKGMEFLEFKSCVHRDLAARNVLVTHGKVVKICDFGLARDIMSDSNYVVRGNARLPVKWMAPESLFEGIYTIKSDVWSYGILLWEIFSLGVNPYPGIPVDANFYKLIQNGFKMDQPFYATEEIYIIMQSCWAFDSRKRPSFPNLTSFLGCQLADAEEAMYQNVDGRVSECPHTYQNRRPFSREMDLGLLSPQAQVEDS
Procedure: as §1, §2, §3

## FL (FLT3-Ligand, from ABCYS SA)
[1]
  mean fold increase in TRPV1 response, ΔFarea: 512%
  mean fold increase in TRPV1 response, ΔFpeak: 212%
  potentiation of the capsaicin response ([Ca2+]i, Fura-2) in DRG neurons: share of capsaicin-responding cells potentiated: 56%

B1: A3 antibody (human monoclonal antibody against FLT3) (antibody, V domains shown)
VH: EVQLVESGGSLVKPGGSLRLSCAASGFTFSNSYMNWVRQAPGKGLEWISDISGSSRDIDYADFVKGRFTISRDNATNSLYLQMNSLRAEDTAVYYCVRSGNSGMDVWGRGTLVTVSS
VL: QSVLTQPASVSGSPGQSITISCAGTSSDVGGGYYVSWYQQHPGKAPKLMIYYDSYRPSGVSNRFSGSKSGNTASLTISGLQAEDEADYYCSSYTNNSTRVFGGGTKLEIK
notes: also called antibody A3; anti-FLT3 A3 antibody
[2]
  IC50: ~17 mg/L
[3]
  IC50: ~17 mg/L
